Biological target: human NPY2 receptor on HEK293/hNPY2R cells (human) (UniProt P49146)
Assay: cell-based or functional assay

IC50 value of the cAMP assay (inhibition of Forskolin stimulated cAMP accumulation in HEK293/hNPY2R cells): 0.012 nM
Substance: PYY(3-36) (peptide)

Source: patent US20130280279A1, “PHARMACEUTICAL COMPOSITION OF A COMPLEX OF AN ANTI-DIG ANTIBODY AND DIGOXIGENIN THAT IS CONJUGATED TO A PEPTIDE” (HOFFMANN-LA ROCHE INC., priority 2011, published 2013)
